Data published in paper PMC8225759, “A GH89 human α-N-acetylglucosaminidase (hNAGLU) homologue from gut microbe Bacteroides thetaiotaomicron capable of hydrolyzing heparosan oligosaccharides” (AMB Express, 2021).

Experiments:
[1] = substrate: CC(=O)N[C@H]1[C@@H](O[C@H]2[C@H](O)[C@@H](O)[C@H](OCCCNC(=O)OCC3c4ccccc4-c4ccccc43)O[C@@H]2C(=O)O)O[C@H](CO)[C@@H](O)[C@@H]1O; assay: purified protein; details: pH 5.0; 30.0 °C
[2] = substrate: CC(=O)N[C@H]1[C@@H](Oc2ccc3c(C)cc(=O)oc3c2)O[C@H](CO)[C@@H](O)[C@@H]1O; assay: purified protein; details: pH 5.0; 30.0 °C

B1: (Bacteroides thetaiotaomicron VPI-5482) (protein)
chain: TGPPVLKEMCQRLFPRHAQSFLFELLTDSIDTDRFILESSQGKIRIKGNNRNSLAAGLNHYLKNYCHTHVSWYASETVEMPDVLPEIPQPVYIRSKCDNRFFLNYCTFGYTMPYWKWQDWERLIDWMALNGVTMPLAITGQESIWYKVWTDMGLSDEQVRSYFTGPAHLPWHRMSNVDFWQSPLPQSWLKDQEELQKRILEREREFDMTPVLPAFAGHVPAELKTIYPNAKIYQMSQWGGFDEKYRSHFIDPMDSLYSIIQRRFLEEQTKVYGTDHIYGIDPFNEVDSPDWSEDFLANVSSKIYESIHQVDSAAQWLQMTWMFFYDKKKWTQPRIRSFLKAVPDNKLILLDYYCDHTEIWRNTEKYYGNPYIWCYLGNFGGNTMIAGNLNDIDFKIKRLFKEGGDNVYGLGATLEGFDVNPLMYEFVFDQAWDYPVTTDQWITNWSMCRGGNQDANIIKAWRALHQKIYTEHATCGQSVLMNARPRLTGTKSWNTNPGIHYANNDLWQIWKELLKARNINNSDFRFDVINIGRQVLGNLFSEYRDQFTACYNRKDTTGMREWSTRMDNLLLDVDRLLSCDATLSIGKWLQDARNCGATVSEKDYYEENARCILTVWGQQDTQLNDYANRGWGGLTRSFYRERWKRFTDGVIAAVSEDKPFDEDKFHQDITQFEYNWTLQKDSFPIVSEEDPIQIADSLILKYDTYFTKAQ
What does the source list for B1?
Km [1]: 2.19 ± 0.16 mM; kcat [1]: 3.57 ± 0.09 s⁻¹; kcat/Km [1]: 1630 M⁻¹ s⁻¹; Km [2]: (4.6 ± 0.4) × 10^−3 mM; kcat [2]: 3.68 ± 0.07 s⁻¹; kcat/Km [2]: 800000 M⁻¹ s⁻¹
